Data published in patent publication US20040138133A1 (Scripps Research, published 2004).
No end group written: not given here.

Target: T1, Nck (adapter protein) from detergent extracts of human endothelial cells (human, UniProt P16333 2-377, limits assumed)
T1 construct: Endogenous protein pulled down from a cell lysate
Assay: peptide-agarose pull-down from human endothelial cell lysate, anti-Nck western blot
Experimental: Affinity Chromatography. PRO or control peptides containing an N-terminal cysteine were dissolved in about 1 ml of coupling buffer (50 mM tris pH 8.0, 5 mM EDTA) and about 0.5 ml at about 3 mg/ml peptide added to about 2 ml of activated thiol-Sepharose (Pharmacia). Samples were incubated at a temperature of about 4° C. overnight with 1% β-mercaptoethanol added to block unreacted sites. Beads were rinsed and stored at a temperature of about 4° C. Endothelial cell cultures in 15 cm dishes were extracted in about 1.0 ml of cold (about 4° C.), lysis buffer (20 mM pH 7.4 sodium phosphate, 100 mM NaCl, 1% Triton X-100, 10 mM NaF, 2 mM EDTA, 1 mM sodium orthovanadate, 1 mM PMSF, 10 μg/ml each of leupeptin and aprotinin). The extracts were centrifuged for about 10 minutes at top speed in a microfuge and the supernatants were then removed. A 0.5 ml sample of each extract was incubated with about 10 μl of packed beads for about 1 hour, with rotation at a temperature of about 4° C. The beads were rinsed with lysis buffer (about 4×0.5 ml) and dissolved in SDS sample buffer (about 0.04 ml). Samples were analyzed by SDS PAGE on 10% gels and immunoblotting with anti-NCK (Santa Cruz) and HRP-protein A as secondary, and then were developed and detected using enhanced chemiluminescence (ECL kit, Amersham). […]

binding result: no binding
Binder: KAGAPPMRNTSTMC (also: C-terminal Cys coupled to thiol-Sepharose (agarose) beads, also called mutant peptide)
